Paper PMC11327152, “Fully-automated production of [^68Ga]Ga-Trivehexin for clinical application and its biodistribution in healthy volunteers” (Frontiers in Oncology, 2024)

Experiments:
[1] = Stability of [^68Ga]Ga-Trivehexin in formulation (PBS), radio-HPLC; format: physicochemical; details: Phosphate Buffer Saline, 2 h co-incubation of final product
Method: Radiochemical purity was evaluated by radio-HPLC and radio-TLC. For radio-HPLC, a mobile phase of H2O with 0.1% trifluoroacetic acid (TFA) (v/v, phase A) and acetonitrile with 0.1% TFA (v/v, phase B) was used with a flow rate of 1.0 mL/min and a linear elution gradient as follows: 0-5 min (0-95% A); 5-10 min (95-30% A);10-20 min (30-0% A). For radio-TLC, 0.4 M ammonium acetate solution/methanol (v/v, 1/1) (A) and 0.1 M citrate buffer (B) were used as mobile phases, respectively.
The stability of [^68Ga]Ga-Trivehexin in formulation and serum was further evaluated in Phosphate Buffer Saline (PBS) and Fetal Bovine Serum (FBS). After co-incubation of the final product with PBS or FBS for 60 or 120 min, radio-HPLC was used for the analysis.

healthy volunteers [2] = tested on: healthy volunteers; design: species or system human; details: in vivo
Method: (§1) Applications of [^68Ga]Ga-Trivehexin in 3 healthy volunteers were done with written informed consent, and details of the volunteers were shown in Supplementary Table S2 . […] The PET scan was performed at 10 min, 35 min, and 60 min after intravenous injection, without repeated CT scans. Another PET/CT imaging sequence was obtained at 150 min post-injection, as the subject had to leave the scanner for voiding. Based on human PET data, the dosimetry values were calculated using OLINDA V2.2 to calculate organ doses and effective dose (as defined by International Commission on Radiological Protection publication 103) ([14]) using the International Commission on Radiological Protection publication 89 ([15]) adult human male and female models.

clinical [3] = details: human, in vivo, iv, total radioactivity
Method: (§2) The clinical study was approved by Medical Ethics Committee, Zhongnan Hospital of Wuhan University and registered at ClinicalTrials.gov (NCT05835570). PET/CT imaging was performed using a Siemens-Biograph mCT PET/CT scanner (Siemens Healthineers, Erlangen, Germany). No special preparation was needed for [^68Ga]Ga-Trivehexin PET/CT. The injection dose was 87-122 MBq (70.7 MBq/mL, 90.9 MBq/nmol) and was determined on the basis of the patient’s weight (1.85 MBq/kg). PET/CT images were scanned from the top of the head to the upper thigh. PET data were obtained in a three-dimensional mode (matrix 200 × 200) of 6-8 bed positions (3 min/bed). Attenuation correction of PET images was performed using low-dose CT data. Image reconstruction was performed using the TrueX and time-of-flight (ultrahigh-definition PET) algorithms.
as §1

healthy volunteers [4] = assay: clinical; details: human, in vivo, iv
Method: as §2, §1

clinical [5] = details: human, in vivo, iv, total radioactivity; remark: listed apart in the source

CC(C)C[C@@H]1NC(=O)[C@H](CC(=O)O)NC(=O)CNC(=O)[C@H](CCCNC(=N)N)NC(=O)[C@H](Cc2ccc(O)cc2)NC(=O)[C@H](CCCCNC(=O)CCc2cn(CCCNC(=O)CCP(=O)(O)CN3CCN(CP(=O)(O)CCC(=O)NCCCn4cc(CCC(=O)NCCCC[C@H]5C(=O)N[C@@H](Cc6ccc(O)cc6)C(=O)N[C@@H](CCCNC(=N)N)C(=O)NCC(=O)N[C@@H](CC(=O)O)C(=O)N[C@@H](CC(C)C)C(=O)N[C@@H](C)C(=O)N[C@@H](Cc6ccc(O)cc6)C(=O)N6CCC[C@@H]6C(=O)N5C)nn4)CCN(CP(=O)(O)CCC(=O)NCCCn4cc(CCC(=O)NCCCC[C@H]5C(=O)N[C@@H](Cc6ccc(O)cc6)C(=O)N[C@@H](CCCNC(=N)N)C(=O)NCC(=O)N[C@@H](CC(=O)O)C(=O)N[C@@H](CC(C)C)C(=O)N[C@@H](C)C(=O)N[C@@H](Cc6ccc(O)cc6)C(=O)N6CCC[C@@H]6C(=O)N5C)nn4)CC3)nn2)N(C)C(=O)[C@H]2CCCN2C(=O)[C@H](Cc2ccc(O)cc2)NC(=O)[C@H](C)NC1=O [[^68Ga]Ga-Trivehexin, metal not drawn]
intact tracer remained in PBS [1]: up to 98.9% | Dose Adrenals (healthy volunteers [2]): 3.22E-02 mGy/MBq | Dose Brain (healthy volunteers [2]): 1.40E-03 mGy/MBq | Dose Esophagus (healthy volunteers [2]): 1.98E-02 mGy/MBq | Dose Eyes (healthy volunteers [2]): 4.25E-03 mGy/MBq | Dose Gallbladder Wall (healthy volunteers [2]): 2.09E-02 mGy/MBq | Dose Heart Wall (healthy volunteers [2]): 1.73E-02 mGy/MBq | Dose Kidneys (healthy volunteers [2]): 2.26E-01 mGy/MBq | Dose Left colon (healthy volunteers [2]): 1.88E-02 mGy/MBq | Dose Liver (healthy volunteers [2]): 1.58E-02 mGy/MBq | Dose Lungs (healthy volunteers [2]): 8.72E-03 mGy/MBq | Dose Osteogenic Cells (healthy volunteers [2]): 1.86E-02 mGy/MBq | Dose Pancreas (healthy volunteers [2]): 1.96E-02 mGy/MBq | Dose Prostate (healthy volunteers [2]): 1.77E-02 mGy/MBq | Dose Rectum (healthy volunteers [2]): 1.96E-02 mGy/MBq | Dose Red Marrow (healthy volunteers [2]): 1.16E-02 mGy/MBq | Dose Right colon (healthy volunteers [2]): 1.86E-02 mGy/MBq | Dose Salivary Glands (healthy volunteers [2]): 1.53E-02 mGy/MBq | Dose Small Intestine (healthy volunteers [2]): 1.78E-02 mGy/MBq | Dose Spleen (healthy volunteers [2]): 1.68E-02 mGy/MBq | Dose Stomach Wall (healthy volunteers [2]): 1.77E-02 mGy/MBq | Dose Testes (healthy volunteers [2]): 1.41E-02 mGy/MBq | Dose Thymus (healthy volunteers [2]): 1.31E-02 mGy/MBq | Dose Thyroid (healthy volunteers [2]): 1.96E-02 mGy/MBq | Dose Total Body (healthy volunteers [2]): 1.26E-02 mGy/MBq | Dose Urinary Bladder Wall (healthy volunteers [2]): 8.24E-02 mGy/MBq | Effective Dose (healthy volunteers [2]): 1.67E-02 mGy/MBq | effective dose in adrenals (healthy volunteers [2]): 3.22E-02 mSv/MBq | effective dose in kidneys (healthy volunteers [2]): 2.26E-01 mSv/MBq | effective dose in urinary bladder wall (healthy volunteers [2]): 8.24E-02 mSv/MBq | total body effective dose (healthy volunteers [2]): 1.67E-02 mSv/MBq | SUV at 1 h (clinical [3]; SUVmean ± SD Colon): 1.07 ± 0.21 SUV | SUV at 2.5 h (clinical [3]; SUVmean ± SD Fat tissue): 0.22 ± 0.1 SUV | SUV at 2.5 h (clinical [3]; SUVmean ± SD Kidney): 21.3 ± 2 SUV | SUV at 1 h (clinical [3]; SUVmean ± SD Liver): 0.82 ± 0.07 SUV | SUV at 2.5 h (clinical [3]; SUVmean ± SD Lung): 0.45 ± 0.13 SUV | SUV at 1 h (clinical [3]; SUVmean ± SD Muscle): 0.97 ± 0.1 SUV | SUV at 2.5 h (clinical [3]; SUVmean ± SD Myocardium): 0.5 ± 0.09 SUV | SUV at 2.5 h (clinical [3]; SUVmean ± SD Parotid gland): 0.97 ± 0.07 SUV | SUV at 1 h (clinical [3]; SUVmean ± SD Spinal Canal(C5)): 0.85 ± 0.13 SUV | SUV at 2.5 h (clinical [3]; SUVmean ± SD Spleen): 0.55 ± 0.07 SUV | SUVmean ± SD Brain (healthy volunteers [4]): 0.01 ± 0.00 | SUV at 0.25 h (clinical [5]; SUVmean ± SD Brain): 0.04 ± 0.01 SUV | SUV at 0.5 h (clinical [5]; SUVmean ± SD Brain): 0.03 ± 0.01 SUV | SUV at 0.25 h (clinical [5]; SUVmean ± SD Colon): 1.86 ± 0.31 SUV | SUV at 0.5 h (clinical [5]; SUVmean ± SD Colon): 1.52 ± 0.36 SUV | SUV at 2.5 h (clinical [5]; SUVmean ± SD Colon): 0.78 ± 0.16 SUV | SUV at 0.25 h (clinical [5]; SUVmean ± SD Eyes): 0.36 ± 0.04 SUV | SUV at 0.5 h (clinical [5]; SUVmean ± SD Eyes): 0.28 ± 0.14 SUV | SUV at 1 h (clinical [5]; SUVmean ± SD Eyes): 0.71 ± 0.28 SUV | SUV at 2.5 h (clinical [5]; SUVmean ± SD Eyes): 0.12 ± 0.03 SUV | SUV at 0.25 h (clinical [5]; SUVmean ± SD Fat tissue): 0.26 ± 0.03 SUV | SUV at 0.5 h (clinical [5]; SUVmean ± SD Fat tissue): 0.22 ± 0.03 SUV | SUV at 1 h (clinical [5]; SUVmean ± SD Fat tissue): 0.26 ± 0.02 SUV | SUV at 0.25 h (clinical [5]; SUVmean ± SD Kidney): 19.3 ± 1.13 SUV | SUV at 0.5 h (clinical [5]; SUVmean ± SD Kidney): 21.5 ± 1.28 SUV | SUV at 1 h (clinical [5]; SUVmean ± SD Kidney): 23.4 ± 2.38 SUV | SUV at 0.25 h (clinical [5]; SUVmean ± SD Liver): 1.68 ± 0.26 SUV | SUV at 0.5 h (clinical [5]; SUVmean ± SD Liver): 1.11 ± 0.23 SUV | SUV at 2.5 h (clinical [5]; SUVmean ± SD Liver): 0.65 ± 0.1 SUV | SUV at 0.25 h (clinical [5]; SUVmean ± SD Lung): 0.65 ± 0.03 SUV | SUV at 0.5 h (clinical [5]; SUVmean ± SD Lung): 0.58 ± 0.14 SUV | SUV at 1 h (clinical [5]; SUVmean ± SD Lung): 0.53 ± 0.05 SUV | SUV at 0.25 h (clinical [5]; SUVmean ± SD Muscle): 1.04 ± 0.1 SUV | SUV at 0.5 h (clinical [5]; SUVmean ± SD Muscle): 1.04 ± 0.01 SUV | SUV at 2.5 h (clinical [5]; SUVmean ± SD Muscle): 0.68 ± 0.1 SUV | SUV at 0.25 h (clinical [5]; SUVmean ± SD Myocardium): 1.69 ± 0.35 SUV | SUV at 0.5 h (clinical [5]; SUVmean ± SD Myocardium): 0.83 ± 0.13 SUV | SUV at 1 h (clinical [5]; SUVmean ± SD Myocardium): 0.52 ± 0.01 SUV | SUV at 0.25 h (clinical [5]; SUVmean ± SD Oral mucosa): 2.6 ± 0.38 SUV | SUV at 0.5 h (clinical [5]; SUVmean ± SD Oral mucosa): 2.28 ± 0.13 SUV | SUV at 1 h (clinical [5]; SUVmean ± SD Oral mucosa): 2.12 ± 0.43 SUV | SUV at 2.5 h (clinical [5]; SUVmean ± SD Oral mucosa): 1.59 ± 0.42 SUV | SUV at 0.25 h (clinical [5]; SUVmean ± SD Pancreas): 2.46 ± 0.12 SUV | SUV at 0.5 h (clinical [5]; SUVmean ± SD Pancreas): 1.47 ± 0.24 SUV | SUV at 1 h (clinical [5]; SUVmean ± SD Pancreas): 1.01 ± 0.11 SUV | SUV at 2.5 h (clinical [5]; SUVmean ± SD Pancreas): 1.13 ± 0.28 SUV | SUV at 0.25 h (clinical [5]; SUVmean ± SD Parotid gland): 2.31 ± 0.09 SUV | SUV at 0.5 h (clinical [5]; SUVmean ± SD Parotid gland): 1.19 ± 0.06 SUV | SUV at 1 h (clinical [5]; SUVmean ± SD Parotid gland): 1.01 ± 0.1 SUV | SUV at 0.25 h (clinical [5]; SUVmean ± SD Spinal Canal(C5)): 1.17 ± 0.15 SUV | SUV at 0.5 h (clinical [5]; SUVmean ± SD Spinal Canal(C5)): 0.62 ± 0.12 SUV | SUV at 2.5 h (clinical [5]; SUVmean ± SD Spinal Canal(C5)): 0.54 ± 0.15 SUV | SUV at 0.25 h (clinical [5]; SUVmean ± SD Spleen): 1.95 ± 0.12 SUV | SUV at 0.5 h (clinical [5]; SUVmean ± SD Spleen): 1.01 ± 0.06 SUV | SUV at 1 h (clinical [5]; SUVmean ± SD Spleen): 0.76 ± 0.01 SUV | SUV at 0.25 h (clinical [5]; SUVmean ± SD Thyroid gland): 3.41 ± 0.22 SUV | SUV at 0.5 h (clinical [5]; SUVmean ± SD Thyroid gland): 1.54 ± 0.29 SUV | SUV at 1 h (clinical [5]; SUVmean ± SD Thyroid gland): 1.37 ± 0.04 SUV | SUV at 2.5 h (clinical [5]; SUVmean ± SD Thyroid gland): 1.01 ± 0.37 SUV
